Measured values taken from PMC8764063.

Target: T1, IRF3 (human (endogenous in U2OS)), Q14653
T1 chain: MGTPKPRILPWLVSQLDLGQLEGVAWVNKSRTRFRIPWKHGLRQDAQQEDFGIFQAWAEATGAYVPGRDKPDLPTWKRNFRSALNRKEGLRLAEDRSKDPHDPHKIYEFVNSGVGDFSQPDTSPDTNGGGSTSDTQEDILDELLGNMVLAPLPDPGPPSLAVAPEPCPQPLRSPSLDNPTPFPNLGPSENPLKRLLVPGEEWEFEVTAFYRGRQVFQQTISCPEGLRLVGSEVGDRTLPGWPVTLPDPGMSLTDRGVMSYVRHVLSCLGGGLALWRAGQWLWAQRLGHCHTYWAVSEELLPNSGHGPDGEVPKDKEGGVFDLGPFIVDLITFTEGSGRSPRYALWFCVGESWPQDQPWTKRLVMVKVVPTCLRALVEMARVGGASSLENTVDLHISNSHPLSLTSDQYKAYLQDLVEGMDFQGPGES
Assay: native gel or EMSA; native gel and Western blot for IRF3 of lysates (TBS lysis buffer: 20 mM Tris pH 7.5, 150 mM NaCl, 0.5% NP-40) of wild-type, PARP1 D214N or PARP1 KO U2OS cells with or without poly(dA-dT) (5 ug/ml, six hours); monomer to dimer
Conditions: remark: other sources report otherwise

B1: IRF3, Q14653 1-427 (natural protein)
chain: MGTPKPRILPWLVSQLDLGQLEGVAWVNKSRTRFRIPWKHGLRQDAQQEDFGIFQAWAEATGAYVPGRDKPDLPTWKRNFRSALNRKEGLRLAEDRSKDPHDPHKIYEFVNSGVGDFSQPDTSPDTNGGGSTSDTQEDILDELLGNMVLAPLPDPGPPSLAVAPEPCPQPLRSPSLDNPTPFPNLGPSENPLKRLLVPGEEWEFEVTAFYRGRQVFQQTISCPEGLRLVGSEVGDRTLPGWPVTLPDPGMSLTDRGVMSYVRHVLSCLGGGLALWRAGQWLWAQRLGHCHTYWAVSEELLPNSGHGPDGEVPKDKEGGVFDLGPFIVDLITFTEGSGRSPRYALWFCVGESWPQDQPWTKRLVMVKVVPTCLRALVEMARVGGASSLENTVDLHISNSHPLSLTSDQYKAYLQDLVEGMDFQGPGES
For B1, the stoichiometry N was 2.
